In the data set the target is CCR5L (designed (synthetic)). Briefly: MST; 100 uM ZnCl2; MST: 20 mM Tris-HCl pH 7.5, 200 mM NaCl, 0.01% Tween-20, 100 uM ZnCl2, 0.1 mM TCEP; TZAP arrays: 20 mM Tris-HCl pH 7.0, 50 mM NaCl, 0.1% Tween-20, 100 uM ZnCl2, 0.1 mM TCEP; temperature not stated. The settings on record: protein: recombinant; tags: His-SUMO cleaved by Ulp1; Cy5-maleimide on terminal Cys; hairpin.
Sequence of CCR5L (designed (synthetic)) (chain, as listed by the source): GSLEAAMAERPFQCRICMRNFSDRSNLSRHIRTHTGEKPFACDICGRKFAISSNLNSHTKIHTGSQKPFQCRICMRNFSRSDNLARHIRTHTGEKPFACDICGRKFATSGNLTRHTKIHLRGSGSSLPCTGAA

B1: ccr5l-wt (structured_DNA)
DNA: GGCTTCCGCTGTCATCCTCATCAGGTTTTCCTGATGAGGATGACAGCGGAAGCC
As to B1, the Kd (usually the equilibrium constant for the complex coming apart) worked out at 5.7 nM.

Source of the values: PMC11793764, “A universal method for the purification of C2H2 zinc finger arrays”.
